Test in all cases: ITC; 25 °C, MicroCal PEAQ-ITC; 50 μM protein in the cell titrated with 17 injections of 750 μM peptide; in the absence of NAD+; 'one set of binding sites' model
The target in assay [1] is SIRT5Δ (human SIRT5 residues 34-302) (human) (UniProt Q9NXA8).
Assay [2] addresses SIRT6 (human SIRT6 residues 1-355) (human) (UniProt Q8N6T7).
Assay [3] addresses CobBΔ (E. coli CobB residues 38-279) (E. coli) (UniProt P75960).
The target of assay [4] is SIRT1Δ (human SIRT1 NAD+-dependent deacetylase domain 234-510 with C-terminal regulatory region 641-665) (human) (UniProt Q96EB6).
For assay [5], the target named is SIRT2Δ (human SIRT2 residues 34-356) (human) (UniProt Q8IXJ6).
Sequence of SIRT2Δ (human SIRT2 residues 34-356) (human) (Q8IXJ6 34-356, stated change not applied): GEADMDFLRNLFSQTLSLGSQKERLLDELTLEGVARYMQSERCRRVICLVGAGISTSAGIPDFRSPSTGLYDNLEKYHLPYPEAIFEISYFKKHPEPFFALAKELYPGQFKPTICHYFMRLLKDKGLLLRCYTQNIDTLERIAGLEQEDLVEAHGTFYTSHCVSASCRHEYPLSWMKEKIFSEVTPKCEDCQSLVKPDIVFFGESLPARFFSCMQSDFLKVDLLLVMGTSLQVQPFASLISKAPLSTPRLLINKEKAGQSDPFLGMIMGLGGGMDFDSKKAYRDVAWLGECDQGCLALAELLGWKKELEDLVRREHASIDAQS

Sequence of SIRT6 (human SIRT6 residues 1-355) (human) (Q8N6T7 whole entry, the tested form may be a part): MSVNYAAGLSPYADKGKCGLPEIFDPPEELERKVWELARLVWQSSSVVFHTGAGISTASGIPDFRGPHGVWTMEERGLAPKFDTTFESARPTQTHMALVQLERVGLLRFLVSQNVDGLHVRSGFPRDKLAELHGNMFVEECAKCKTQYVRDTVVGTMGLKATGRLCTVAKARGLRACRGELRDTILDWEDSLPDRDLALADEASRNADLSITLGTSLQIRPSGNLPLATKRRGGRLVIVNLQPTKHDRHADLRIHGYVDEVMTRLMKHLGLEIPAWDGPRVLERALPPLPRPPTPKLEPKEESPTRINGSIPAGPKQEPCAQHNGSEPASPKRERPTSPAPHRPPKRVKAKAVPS
Sequence of SIRT5Δ (human SIRT5 residues 34-302) (human) (Q9NXA8 34-302, stated change not applied): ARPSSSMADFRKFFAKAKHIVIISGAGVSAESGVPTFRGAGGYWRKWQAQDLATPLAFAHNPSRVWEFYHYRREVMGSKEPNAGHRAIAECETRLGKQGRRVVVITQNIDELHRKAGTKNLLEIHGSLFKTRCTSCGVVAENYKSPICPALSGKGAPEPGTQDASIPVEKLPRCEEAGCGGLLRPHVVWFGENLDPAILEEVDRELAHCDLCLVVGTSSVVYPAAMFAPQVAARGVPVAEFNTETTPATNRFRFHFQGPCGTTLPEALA

For the substance “histone H3(1-15)K9ac peptide (from UniProt P68431 2-16)”, the Kd in assay [1] came out at 153000 nM; in assay [2], 102000 nM.

On to “histone H3(1-15)K9bu peptide (from UniProt P68431 2-16)”, for which the dissociation constant (Kd) in assay [3] came out at 200 nM.

Take “histone H3(1-15)K9cr peptide (from UniProt P68431 2-16)”: the Kd in assay [4] came to 45400 nM.

Turning to “histone H3(1-15)K9dec peptide (from UniProt P68431 2-16)”, the values for the Kd in assay [3], in assay [4] and in assay [2] were 200 nM, 7000 nM and 54400 nM, respectively.

With “histone H3(1-15)K9dod peptide (from UniProt P68431 2-16)”, the Kd in assay [3] amounted to 60 nM; in assay [4] it was 4900 nM; in assay [5] it was 6900 nM.

The substance “histone H3(1-15)K9hex peptide (from UniProt P68431 2-16)” displayed a dissociation constant Kd in assay [3] of 300 nM. In other words, the sub-micromolar range.

Take “histone H3(1-15)K9myr peptide (from UniProt P68431 2-16)”: the equilibrium dissociation constant (Kd) in assay [3] worked out at 50 nM; in assay [5], 800 nM.

For the substance “histone H3(1-15)K9oct peptide (from UniProt P68431 2-16)”, the Kd in assay [3] was found to be 200 nM; in assay [2], 700 nM.

Turning to “histone H3(1-15)K9pr peptide (from UniProt P68431 2-16)”, the figures for the Kd in assay [3] and in assay [5] were 800 nM and 105000 nM, respectively.

One may read the Kd as a measure of binding affinity in units of concentration. Read a low Kd as tighter binding.

For the origin of these results see publication PMC6796883.
